The text below walks through data of publication PMC4248295.

The target in this series is T1, MSL2 CXC domain (Drosophila melanogaster, UniProt P50534 520-570, C560G).
T1 sequence: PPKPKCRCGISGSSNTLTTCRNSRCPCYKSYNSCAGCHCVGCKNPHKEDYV
Briefly: crystal structure.

B1: (GC)6 (12 bp) (dsDNA)
DNA 1: GCGCGCGCGCGC
DNA 2: GCGCGCGCGCGC
For B1, the binding result is “binds”.
